Data set [1] deals with the molecule itself. In words: AUC; sedimentation velocity, absorbance at 280 nm, NanR alone at 3.3, 10 and 30 uM in 20 mM Tris-HCl pH 8.0, 150 mM NaCl, 20 °C, 50,000 rpm.
Data set [2] deals with the molecule itself. Briefly: AUC; multiwavelength sedimentation velocity (220-300 nm) of protein titrated against (GGTATA)3-repeat DNA, 50 mM sodium phosphate pH 7.4, 150 mM NaCl, 20 °C; oligomer told from the molar ratio of protein to DNA in co-migrating peaks.

These results are taken from article PMC8012715 (Nature Communications, 2021).

B1: Escherichia coli Nan repressor (NanR) (natural protein, E. coli K12, UniProt P0A8W0 1-263, looked up)
chain: MGLMNAFDSQTEDSSPAIGRNLRSRPLARKKLSEMVEEELEQMIRRREFGEGEQLPSERELMAFFNVGRPSVREALAALKRKGLVQINNGERARVSRPSADTIIGELSGMAKDFLSHPGGIAHFEQLRLFFESSLVRYAAEHATDEQIDLLAKALEINSQSLDNNAAFIRSDVDFHRVLAEIPGNPIFMAIHVALLDWLIAARPTVTDQALHEHNNVSYQQHIAIVDAIRRHDPDEADRALQSHLNSVSATWHAFGQTTNKKK
notes: NanR, GntR-type transcriptional repressor of E. coli K12; the synthesised nanR gene in pET28a; the dimer mass used (59 kDa) fits an untagged chain; Expressed with 100 uM ZnCl2; carries Zn2+; For the crystals the protein was treated in situ with chymotrypsin, and the cut limits are not known; also called wild-type NanR; E. coli NanR
Broadly, the stoichiometry N is a count of units in the complex or per binding partner. With B1, in data set [1], the “stoichiometry N” value came out at 2.

B2: truncated NanR construct NanR^33–263 (domain or fragment, E. coli K12, UniProt P0A8W0 33-263, looked up)
chain: SEMVEEELEQMIRRREFGEGEQLPSERELMAFFNVGRPSVREALAALKRKGLVQINNGERARVSRPSADTIIGELSGMAKDFLSHPGGIAHFEQLRLFFESSLVRYAAEHATDEQIDLLAKALEINSQSLDNNAAFIRSDVDFHRVLAEIPGNPIFMAIHVALLDWLIAARPTVTDQALHEHNNVSYQQHIAIVDAIRRHDPDEADRALQSHLNSVSATWHAFGQTTNKKK
notes: amplified from nanR and cloned into pET28a; No tag is named
B2: in data set [2], the binding result is “binds”.
